Target: T1, DcuR-His6 (Escherichia coli O157:H7 EDL933?) (UniProt P0AD02)
T1 sequence: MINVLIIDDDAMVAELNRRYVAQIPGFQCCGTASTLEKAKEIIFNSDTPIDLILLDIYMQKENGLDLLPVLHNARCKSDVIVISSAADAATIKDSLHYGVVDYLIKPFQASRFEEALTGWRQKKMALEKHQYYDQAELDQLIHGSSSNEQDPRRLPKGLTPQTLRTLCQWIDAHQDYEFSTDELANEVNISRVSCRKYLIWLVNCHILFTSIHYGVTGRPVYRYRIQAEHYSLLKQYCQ
Assay: EMSA

“CATTAGCCATTGGAAACTCACGTAATCATTAATTATGAATATTCCATTAAATAGTACTGTACAACAGCTTCCTTTCTACTCTATTCTTAGACGATGTAAGTTCACCATATTTTTTCTCATTGTTCAACCACCAGGATGAATAAAATTTAAAAATGTTATCCTCATATAAAATAAAACTTCTCAATGGTGCGATGCG (double strand) [PLEE4]” was tested, and the binding was “no binding”.
For “AGATTCATCTGCAGGCTCTGAAGTAAGTATACGTGTGAATATTATTGCTTGAAAAAGCGTATTGGATAATATATACAGTATATGTACTTTATGTACATTGCAACTATTTAAATAATATAATAGTTGCCTATGGGATAATTTGGTTATTTATAACCAGGTAAATGTCTAAATTAGACAAAAGGAGAAAGATCAATGGAAGCAGCAAATTTAAGTCCTTCTGGTGCAGTAATG (double strand) [PLEE2/3]”, the binding was “no binding”.

— paper PMC10636207
